Results on two molecules are retold here after US20110293526A1, “COMPOSITIONS AND METHODS TO MODULATE HAIR GROWTH” (University of Southern California, priority 2008, published 2011).

For series [1] the following is noted: in published reports; cited from earlier work.
The conditions of series [2]: DMSO; cited from earlier work.
In the next series the test system is competent telogen skin. The series is described as follows: Protein administration experiment: human BMP4-soaked beads implanted into competent telogen skin ahead of an anagen-spreading wave. The format is in vivo, mice. The settings on record: for propagation of the anagen-spreading (hair propagation) wave around the beads: beads soaked in human BMP4 1 mg per ml, implanted in competent telogen skin of adult mice, protein replenished every 24 h, twelve days later, versus control BSA/albumin beads. How it is done: Intracutaneous administration of exogenous protein was performed as follows. Affinity chromatography Affi-gel blue gel beads were obtained from Biorad. Beads were washed in 1×PBS, followed by drying. The beads were then re-suspended in 5 μl protein solution, either control (BSA 1 mg ml^−1) or experimental (human BMP4 1 mg per ml), at 4° C. for 30 min. Recombinant human BMP4 protein was obtained from R&D Systems. Reconstitution of the protein was performed in 4 mM HCl in 0.2% BSA as per the manufacturer's guidelines. Approximately 100 beads were introduced to the competent telogen skin of adult mice by means of a single puncture wound to the skin made by a 30 g syringe (insulin syringe). To replenish proteins, subsequent doses of 1.5 μl protein solution were microinjected to the site of the bead implantation every 24 h by means of a glass micro-needle until the tissue was harvested. After the anagen-spreading wave was noted to pass beyond the bead implantation sites (1 week in the case of FIGS. 2g, h), the skin was collected and inverted for photography. This allows the study of the anagen-wave-spreading dynamics around the control and human BMP4 beads.
Finally, it was tested whether a direct local delivery of BMP protein can convert competent telogen status to refractory in normal mice. Human-BMP4-soaked beads were implanted into competent telogen skin ahead of an anagen-spreading wave (see Methods in Botchkarev et al. (2001) FASEB J. 15:2205-14). […] Thus, the level of BMP activity can indeed explain the functional status (refractory versus competent) of a skin region.

Take `c1cc(-c2cnn3cc(-c4ccc(OCCN5CCCCC5)cc4)cnc23)ccn1` [Dorsomorphin]: the toxicity result in series [1] was “low toxicity”. Also, the solubility entry in series [2] was “soluble in DMSO”.

B1: human BMP4: Recombinant human BMP4 protein obtained from R&D Systems (protein, UniProt P12644 293-408, looked up)
Bone morphogenetic protein 4: SPKHHSQRARKKNKNCRRHSLYVDFSDVGWNDWIVAPPGYQAFYCHGDCPFPLADHLNSTNHAIVQTLVNSVNSSIPKACCVPTELSAISMLYLDEYDKVVLKNYQEMVVEGCGCR
Turning to B1, the “propagation of the anagen-spreading (hair propagation) wave around the beads” value in the series on competent telogen skin is recorded as “prevented the propagation of the wave around the beads”; with competent telogen skin (listed as Human-BMP4) it was “caused hair propagation wave (solid arrow) to go around them, creating a new telogen domain”; in the series on competent telogen skin (listed as hBMP4), “caused hair propagation wave (solid arrowed curve) to go around them, creating a new telogen domain”. Further, in the series on competent telogen skin (delivered intracutaneously via single glass microneedle during competent telogen phase), the “status of treated skin and hair regeneration after intracutaneous delivery” value is “rendered treated skin refractory and prevented hair regeneration”.
